Laboratory results: patent publication CN105131113A (ATTOBIO BIOPHARMACEUTICAL SUZHOU CO LTD, dated 2015)

Assays:
[1] = molecular target: T1, 细胞内源的HPV16E7蛋白 (HPV16, UniProt P03129 2-98); experiment: immunocytochemistry on fixed, permeabilised CaSki cells (C-33A as negative control)
T1 construct: Endogenous, intracellular HPV16 E7 in fixed and permeabilised CaSki cells (ICC) or in formalin-fixed paraffin sections of cervical tissue (IHC); as printed it has no initial Met; also called 宫颈癌细胞株CaSki表达的HPV16E7蛋白; 宫颈癌组织中的HPV16E7蛋白
T1 sequence: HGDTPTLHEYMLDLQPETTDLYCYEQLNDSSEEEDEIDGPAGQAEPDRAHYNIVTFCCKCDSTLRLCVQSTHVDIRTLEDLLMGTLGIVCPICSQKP

[2] = molecular target: T2, His-HPV18E7融合蛋白 (HPV18, UniProt P06788 1-105); experiment: indirect ELISA, antigen coated at 0.5μg/ml, antibody 0.1μg/ml
T2 construct: not shown: His tag
T2 chain: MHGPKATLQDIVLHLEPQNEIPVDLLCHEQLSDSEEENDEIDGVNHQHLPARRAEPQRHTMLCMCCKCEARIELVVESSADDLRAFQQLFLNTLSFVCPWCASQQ

[3] = molecular target: T3, 重组蛋白His-HPV16E7 (HPV16, UniProt P03129 2-98); experiment: as above
T3 construct: also called His-HPV16E7融合蛋白; His-HPV16E7重组蛋白; not shown: His tag
T3 sequence: T1 sequence

[4] = molecular target: T4, 多肽HPV16E7-5 (HPV16); experiment: ELISA, peptide coated at 2μg/ml
T4 construct: Peptide of HPV16 E7
T4 peptide: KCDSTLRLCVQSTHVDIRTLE

[5] = molecular target: T5, 多肽HPV16E7-27 (HPV16); experiment: ELISA, peptide coated at 2μg/ml
T5 construct: Peptide of HPV16 E7
T5 peptide: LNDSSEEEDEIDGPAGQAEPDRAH

[6] = molecular target: T6, 多肽His-Vac (HPV16); experiment: ELISA, peptide coated at 2μg/ml
T6 peptide: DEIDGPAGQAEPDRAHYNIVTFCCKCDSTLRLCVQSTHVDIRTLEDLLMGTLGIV

[7] = molecular target: T7, 多肽HPV16E7-1 (HPV16); experiment: ELISA, peptide coated at 2μg/ml
T7 construct: Peptide of HPV16 E7
T7 peptide: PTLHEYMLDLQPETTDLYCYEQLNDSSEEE

B1: 兔源单克隆抗体RAB-034 (antibody, V domains shown)
VH: QSLEESGGRLVTPGTPLTLTCTVSGIDLSSYAMGWVRQAPGEGLDWIGSIGSSGRTYYANWAKGRFTISKTSSTTVDLKMTSLTTEDTATYFCARGVVNRSDIWGPGTLVTVSS
VL: DPMLTQTASSVSAAVGGTVTISCQSSQSVYDNNWLGWYQQKPGQPPKLLIYGASNLESGVPSRFKGSGSGTQFTLTISDVQCDDAATYYCAGGYSGNRYVFGGGTEVVVK
notes: also called 抗HPV16E7兔单抗RAB-034
binding result [1]: binds | binding result [2]: binds | binding result [3]: binds | binding result [4]: no binding (tested: 1μg/ml) | binding result [5]: no binding (tested: 1μg/ml) | binding result [6]: no binding (tested: 1μg/ml) | binding result [7]: no binding (tested: 1μg/ml)
